Broadly, the IC50 is the concentration that inhibits the measured activity by half. High values mean weaker potency in that assay, low ones greater potency in that assay.

The assay addresses APC-B (APC Basic domain, residues 2167-2674), without SNAP (human, UniProt P25054 2167-2674). Put plainly: other fluorescence titration.

B1: EB1 (full-length, untagged, unlabeled) (natural protein, human, UniProt Q15691 1-268, looked up)
chain: MAVNVYSTSVTSDNLSRHDMLAWINESLQLNLTKIEQLCSGAAYCQFMDMLFPGSIALKKVKFQAKLEHEYIQNFKILQAGFKRMGVDKIIPVDKLVKGKFQDNFEFVQWFKKFFDANYDGKDYDPVAARQGQETAVAPSLVAPALNKPKKPLTSSSAAPQRPISTQRTAAAPKAGPGVVRKNPGVGNGDDEAAELMQQVNVLKLTVEDLEKERDFYFGKLRNIELICQENEGENDPVLQRIVDILYATDEGFVIPDEGGPQEEQEEY
On to B1, for which the half-maximal inhibitory concentration (IC50) was about 300 nM.

(Values after PMC7726095 (Current biology : CB, 2020).)
